Measured values from article PMC12102759.

B1: NEK9 peptide 736-751 (Serine/threonine-protein kinase Nek9), 16-mer library wild type / NSP9 (ORF1ab Nsp9, residues 4141-4253) (parent)
chain 1: NSSGLSIGTVFQSSSP
chain 2: NNELSPVALRQMSCAAGTTQTACTDDNALAYYNTTKGGRFVLALLSDLQDLKWARFPKSDGTGTIYTELEPPCRFVTDTPKGPKVKYLYFIKGLNNLNRGMVLGSLAATVRLQ
B2: NOTCH4 peptide 1606-1621 (Neurogenic locus notch homolog protein 4), 16-mer library wild type / NSP9 (ORF1ab Nsp9, residues 4141-4253) (parent)
chain 1: QGAWLGAPEPWEPLLD
chain 2: B1 chain 2
B3: AZIN2 peptide 1-16 (Antizyme inhibitor 2), 16-mer library wild type / NSP3 ADRP (ORF1ab Nsp3b ADRP, residues 1023-1192) (parent)
chain 1: MAGYLSESDFVMVEEG
chain 2: not shown
B4: ICA1L peptide 453-468 (Islet cell autoantigen 1-like protein), 16-mer library wild type / NSP16 (ORF1ab Nsp16, residues 6799-7088) (parent)
chain 1: MSAWFNLFADLDPLSN
chain 2: SSQAWQPGVAMPNLYKMQRMLLEKCDLQNYGDSATLPKGIMMNVAKYTQLCQYLNTLTLAVPYNMRVIHFGAGSDKGVAPGTAVLRQWLPTGTLLVDSDLNDFVSDADSTLIGDCATVHTANKWDLIISDMYDPKTKNVTKENDSKEGFFTYICGFIQQKLALGGSVAIKITEHSWNADLYKLMGHFAWWTAFVTNVNASSSEAFLIGCNYLGKPREQIDGYVMHANYIFWRNTNPIQLSSYSLFDMSKFPLKLRGTAVMSLKEGQINDMILSLLSKGRLIIRENNRVVI
B5: TET3 peptide 458-473 (Methylcytosine dioxygenase TET3), 16-mer library wild type / NSP3 SUD-M (ORF1ab Nsp3c SUD-M, residues 1356-1493) (parent)
chain 1: DPMAELEQLLGSASDY
chain 2: LPSIISNEKQEILGTVSWNLREMLAHAEETRKLMPVCVETKAIVSTIQRKYKGIKIQEGVVDYGARFYFYTSKTTVASLINTLNDLNETLVTMPLGYVTHGLNLEEAARYMRSLKVPATVSVSSPDAVTAYNGYLTSS

Variants of: B1
Settings: with NSP9 (ORF1ab Nsp9, residues 4141-4253); bait immobilised on MaxiSorp plates (10 µg), library pre-cleared on GST, 2 h binding at 4 °C, five washes; one round per day, days 1-4; value from days 2 and 3; keep out of graded; scale: average fractional NGS count over selection days 2 and 3

| Variant | screen value |
| --- | --- |
| chain 1 S6Y | 0 |
| chain 1 Q12Y | 1.21e-05 |
| chain 1 S13T | 0.000105 |
| chain 1 L5K | 0 |
| chain 1 S3H | 3.04e-05 |
| chain 1 T9Y | 2.09e-05 |
| chain 1 T9S | 0 |
| chain 1 S14D | 7.14e-05 |
| chain 1 S2H | 0 |
| chain 1 S14N | 3.83e-05 |
| chain 1 G8D | 0.000107 |
| chain 1 S13M | 0 |
| chain 1 G4I | 0 |
| chain 1 S2P | 0.00012 |
| chain 1 S3M | 5.44e-05 |
| chain 1 Q12M | 1.76e-05 |
| chain 1 V10D | 0.000207 |
| chain 1 Q12I | 0 |
| chain 1 S3D | 0.000508 |
| chain 1 P16F | 0 |
| chain 1 I7G | 0 |
| chain 1 S3W | 0.000185 |
| chain 1 S14F | 0.000194 |
| chain 1 S3E | 0.000394 |

Variants of: B2
Settings: with NSP9 (ORF1ab Nsp9, residues 4141-4253); bait immobilised on MaxiSorp plates (10 µg), library pre-cleared on GST, 2 h binding at 4 °C, five washes; one round per day, days 1-4; value from days 2 and 3; keep out of graded; scale: average fractional NGS count over selection days 2 and 3

| Variant | screen value |
| --- | --- |
| chain 1 G6N | 0 |
| chain 1 A3H | 3.7e-05 |
| chain 1 Q1S | 7.35e-05 |
| chain 1 G6Y | 0 |
| chain 1 W4I | 0 |
| chain 1 G6H | 0 |
| chain 1 G6R | 0 |
| chain 1 L14E | 4.45e-05 |
| chain 1 W4H | 0 |
| chain 1 G6F | 0 |
| chain 1 A3G | 0 |
| chain 1 L14N | 1.14e-05 |
| chain 1 A3E | 2.97e-05 |
| chain 1 G2H | 0 |
| chain 1 G2W | 0 |
| chain 1 G2Y | 0 |
| chain 1 L5K | 0 |
| chain 1 L5M | 0 |
| chain 1 W4M | 0 |
| chain 1 P8K | 0 |
| chain 1 L5V | 3.16e-05 |
| chain 1 Q1G | 5.8e-05 |
| chain 1 L5H | 0 |

| Variant | screen value |
| --- | --- |
| chain 1 G2R | 1.21e-05 |
| chain 1 G6E | 6.33e-05 |
| chain 1 W4F | 7.26e-05 |
| chain 1 Q1V | 3.52e-05 |
| chain 1 G2L | 0 |
| chain 1 E12R | 8.31e-05 |
| chain 1 W11K | 3.16e-05 |
| chain 1 G6W | 0 |
| chain 1 L15G | 6.9e-05 |
| chain 1 E9R | 5.73e-05 |
| chain 1 W4T | 0 |
| chain 1 W4Q | 0 |
| chain 1 W11R | 3.62e-05 |
| chain 1 E9H | 4.98e-05 |
| chain 1 L14D | 2.68e-05 |
| chain 1 L5Y | 0 |
| chain 1 L15W | 5.05e-05 |
| chain 1 G6Q | 0 |
| chain 1 L5P | 3.64e-05 |
| chain 1 G2A | 0 |
| chain 1 G6S | 0 |
| chain 1 G2T | 0 |
| chain 1 G6L | 0 |

Variants of: B3
Settings: with NSP3 ADRP (ORF1ab Nsp3b ADRP, residues 1023-1192); bait immobilised on MaxiSorp plates (10 µg), library pre-cleared on GST, 2 h binding at 4 °C, five washes; one round per day, days 1-4; value from days 2 and 3; keep out of graded; scale: average fractional NGS count over selection days 2 and 3

| Variant | screen value |
| --- | --- |
| chain 1 A2G | 0 |
| chain 1 A2H | 0 |
| chain 1 A2M | 0 |
| chain 1 D9A | 1.5e-05 |
| chain 1 D9H | 2.63e-05 |
| chain 1 D9I | 2.23e-05 |
| chain 1 D9T | 2.66e-05 |
| chain 1 E7A | 0 |
| chain 1 E7S | 0 |
| chain 1 E7T | 0 |
| chain 1 E14A | 3.37e-05 |
| chain 1 E14G | 5.95e-05 |
| chain 1 E14H | 3.26e-05 |
| chain 1 E14T | 1.06e-05 |
| chain 1 E14V | 1.13e-05 |
| chain 1 E15A | 1.82e-05 |
| chain 1 E15F | 0 |
| chain 1 E15K | 0 |
| chain 1 E15M | 0 |
| chain 1 E15V | 2.58e-05 |

| Variant | screen value |
| --- | --- |
| chain 1 E15W | 0 |
| chain 1 E15Y | 0 |
| chain 1 F10D | 0 |
| chain 1 F10R | 0 |
| chain 1 F10S | 1.39e-05 |
| chain 1 F10W | 2.93e-05 |
| chain 1 G3P | 0 |
| chain 1 G3S | 2.71e-05 |
| chain 1 G3T | 0 |
| chain 1 G16M | 3.8e-05 |
| chain 1 G16W | 5.19e-05 |
| chain 1 L5M | 1.33e-05 |
| chain 1 M12D | 6.55e-05 |
| chain 1 M12G | 0 |
| chain 1 M12K | 0 |
| chain 1 M12P | 6.03e-05 |
| chain 1 M12Q | 0 |
| chain 1 M12W | 0 |
| chain 1 S6G | 0 |
| chain 1 S6H | 0 |

| Variant | screen value |
| --- | --- |
| chain 1 S6Q | 0 |
| chain 1 S6T | 0 |
| chain 1 S6W | 0 |
| chain 1 S8D | 1.43e-05 |
| chain 1 S8F | 4.02e-05 |
| chain 1 S8N | 5.33e-05 |
| chain 1 S8Q | 2.27e-05 |
| chain 1 V11K | 2.1e-05 |
| chain 1 V11N | 1.5e-05 |
| chain 1 V11Q | 1.04e-05 |
| chain 1 V11R | 4.17e-05 |
| chain 1 V13A | 1.13e-05 |
| chain 1 V13E | 4.94e-05 |
| chain 1 V13F | 1.65e-05 |
| chain 1 V13G | 0 |
| chain 1 V13N | 6.59e-05 |
| chain 1 V13P | 5.36e-05 |
| chain 1 V13S | 3.26e-05 |
| chain 1 V13W | 4.62e-05 |
| chain 1 Y4F | 1.08e-05 |

Variants of: B4
Settings: with NSP16 (ORF1ab Nsp16, residues 6799-7088); bait immobilised on MaxiSorp plates (10 µg), library pre-cleared on GST, 2 h binding at 4 °C, five washes; one round per day, days 1-4; value from days 2 and 3; keep out of graded; scale: average fractional NGS count over selection days 2 and 3

| Variant | screen value |
| --- | --- |
| chain 1 A3D | 4.01e-05 |
| chain 1 A3L | 0 |
| chain 1 A3P | 0 |
| chain 1 A9N | 0 |
| chain 1 D10Y | 6.76e-05 |
| chain 1 F5L | 0 |
| chain 1 F5W | 0 |
| chain 1 F8Y | 0 |
| chain 1 L7S | 0 |
| chain 1 L11I | 1.35e-05 |
| chain 1 L11P | 0 |
| chain 1 L11W | 0 |
| chain 1 N6K | 0 |
| chain 1 N6R | 0 |
| chain 1 P13V | 0 |
| chain 1 S2D | 0.00136 |
| chain 1 S2L | 0 |
| chain 1 S15R | 0 |
| chain 1 W4A | 0 |

Variants of: B5
Settings: with NSP3 SUD-M (ORF1ab Nsp3c SUD-M, residues 1356-1493); bait immobilised on MaxiSorp plates (10 µg), library pre-cleared on GST, 2 h binding at 4 °C, five washes; one round per day, days 1-4; value from days 2 and 3; keep out of graded; scale: average fractional NGS count over selection days 2 and 3

| Variant | screen value |
| --- | --- |
| chain 1 A4L | 0 |
| chain 1 A4N | 0 |
| chain 1 A13D | 0 |
| chain 1 A13E | 0 |
| chain 1 A13N | 0 |
| chain 1 A13V | 0 |
| chain 1 D15G | 0 |
| chain 1 D15K | 0 |
| chain 1 D15N | 0 |
| chain 1 E5K | 0 |
| chain 1 E5Q | 0 |
| chain 1 E7G | 0 |
| chain 1 E7I | 0 |
| chain 1 E7K | 0 |
| chain 1 E7N | 1.67e-05 |
| chain 1 E7T | 0 |
| chain 1 E7Y | 0 |
| chain 1 G11A | 0 |
